Assay results from publication PMC4267639, “The Mtr4 ratchet helix and arch domain both function to promote RNA unwinding”.

Columns and labels:
Assay in all cases: fluorescence anisotropy
Conditions in all cases: FA: 40 mM MOPS pH 6.5, 100 mM NaCl, 0.5 mM MgCl2, 5% glycerol, 0.01% NP-40 substitute, 2 mM DTT, 60 nM RNA, 30 C; EMSA conditions not in material
[1] = biological target: T1, Mtr4 E1033A-archless E1033A (Saccharomyces cerevisiae) (UniProt P47047)
T1 sequence: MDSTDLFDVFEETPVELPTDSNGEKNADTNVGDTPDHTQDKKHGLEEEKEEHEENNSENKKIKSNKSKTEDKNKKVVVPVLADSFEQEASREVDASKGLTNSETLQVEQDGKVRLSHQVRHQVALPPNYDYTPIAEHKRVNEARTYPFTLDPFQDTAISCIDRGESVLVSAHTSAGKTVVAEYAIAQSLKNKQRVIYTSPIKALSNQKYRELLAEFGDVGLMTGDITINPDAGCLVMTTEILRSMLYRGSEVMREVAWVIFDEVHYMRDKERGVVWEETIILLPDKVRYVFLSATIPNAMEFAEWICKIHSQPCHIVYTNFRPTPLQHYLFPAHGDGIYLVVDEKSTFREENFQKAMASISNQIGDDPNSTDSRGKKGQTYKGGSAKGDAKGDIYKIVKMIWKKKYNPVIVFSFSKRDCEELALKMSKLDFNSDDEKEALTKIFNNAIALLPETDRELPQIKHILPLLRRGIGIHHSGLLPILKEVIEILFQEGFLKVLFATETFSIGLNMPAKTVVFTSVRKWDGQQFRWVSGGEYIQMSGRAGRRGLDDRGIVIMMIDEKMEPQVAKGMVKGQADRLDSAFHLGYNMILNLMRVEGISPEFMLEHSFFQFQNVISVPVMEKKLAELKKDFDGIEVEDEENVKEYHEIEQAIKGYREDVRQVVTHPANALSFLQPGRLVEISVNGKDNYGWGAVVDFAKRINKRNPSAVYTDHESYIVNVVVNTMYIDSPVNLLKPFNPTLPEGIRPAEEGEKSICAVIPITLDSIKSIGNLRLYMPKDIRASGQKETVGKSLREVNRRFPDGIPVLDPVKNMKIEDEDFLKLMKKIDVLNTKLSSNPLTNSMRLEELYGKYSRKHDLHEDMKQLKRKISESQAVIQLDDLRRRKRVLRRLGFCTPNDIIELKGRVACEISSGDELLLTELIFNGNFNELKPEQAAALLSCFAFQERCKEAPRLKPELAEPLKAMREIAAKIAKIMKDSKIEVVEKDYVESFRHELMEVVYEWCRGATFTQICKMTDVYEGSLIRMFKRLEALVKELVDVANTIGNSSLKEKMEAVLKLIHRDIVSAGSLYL

[2] = biological target: T2, Mtr4 R1030A-archless R1030A (Saccharomyces cerevisiae) (UniProt P47047)
T2 sequence: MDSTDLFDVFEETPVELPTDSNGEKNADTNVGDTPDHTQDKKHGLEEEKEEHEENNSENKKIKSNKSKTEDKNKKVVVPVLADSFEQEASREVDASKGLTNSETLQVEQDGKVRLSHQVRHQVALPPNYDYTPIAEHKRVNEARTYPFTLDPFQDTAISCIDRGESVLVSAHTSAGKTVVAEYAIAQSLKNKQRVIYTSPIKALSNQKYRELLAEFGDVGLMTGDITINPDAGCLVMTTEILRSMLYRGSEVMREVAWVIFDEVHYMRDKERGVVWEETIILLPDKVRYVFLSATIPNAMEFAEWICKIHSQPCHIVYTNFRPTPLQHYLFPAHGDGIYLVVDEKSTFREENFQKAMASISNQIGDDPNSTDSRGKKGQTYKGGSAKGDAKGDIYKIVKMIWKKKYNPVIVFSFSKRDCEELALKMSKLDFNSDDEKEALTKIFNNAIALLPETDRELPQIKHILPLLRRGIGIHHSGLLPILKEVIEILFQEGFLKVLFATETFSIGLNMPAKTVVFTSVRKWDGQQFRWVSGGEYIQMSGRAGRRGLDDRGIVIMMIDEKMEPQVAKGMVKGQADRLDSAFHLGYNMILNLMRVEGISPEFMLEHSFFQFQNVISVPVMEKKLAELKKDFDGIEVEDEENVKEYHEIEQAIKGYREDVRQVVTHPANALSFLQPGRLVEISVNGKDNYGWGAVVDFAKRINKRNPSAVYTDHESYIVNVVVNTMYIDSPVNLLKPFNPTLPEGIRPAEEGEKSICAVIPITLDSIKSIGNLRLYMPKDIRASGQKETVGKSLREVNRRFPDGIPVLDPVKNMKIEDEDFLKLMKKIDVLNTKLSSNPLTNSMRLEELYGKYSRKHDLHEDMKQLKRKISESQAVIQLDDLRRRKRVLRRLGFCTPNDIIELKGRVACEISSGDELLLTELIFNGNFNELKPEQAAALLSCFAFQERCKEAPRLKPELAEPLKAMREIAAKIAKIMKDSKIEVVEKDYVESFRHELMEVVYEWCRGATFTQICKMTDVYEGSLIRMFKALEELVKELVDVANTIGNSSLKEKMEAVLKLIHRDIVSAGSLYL

[3] = biological target: T3, Mtr4 archless (Saccharomyces cerevisiae) (UniProt P47047)
T3 sequence: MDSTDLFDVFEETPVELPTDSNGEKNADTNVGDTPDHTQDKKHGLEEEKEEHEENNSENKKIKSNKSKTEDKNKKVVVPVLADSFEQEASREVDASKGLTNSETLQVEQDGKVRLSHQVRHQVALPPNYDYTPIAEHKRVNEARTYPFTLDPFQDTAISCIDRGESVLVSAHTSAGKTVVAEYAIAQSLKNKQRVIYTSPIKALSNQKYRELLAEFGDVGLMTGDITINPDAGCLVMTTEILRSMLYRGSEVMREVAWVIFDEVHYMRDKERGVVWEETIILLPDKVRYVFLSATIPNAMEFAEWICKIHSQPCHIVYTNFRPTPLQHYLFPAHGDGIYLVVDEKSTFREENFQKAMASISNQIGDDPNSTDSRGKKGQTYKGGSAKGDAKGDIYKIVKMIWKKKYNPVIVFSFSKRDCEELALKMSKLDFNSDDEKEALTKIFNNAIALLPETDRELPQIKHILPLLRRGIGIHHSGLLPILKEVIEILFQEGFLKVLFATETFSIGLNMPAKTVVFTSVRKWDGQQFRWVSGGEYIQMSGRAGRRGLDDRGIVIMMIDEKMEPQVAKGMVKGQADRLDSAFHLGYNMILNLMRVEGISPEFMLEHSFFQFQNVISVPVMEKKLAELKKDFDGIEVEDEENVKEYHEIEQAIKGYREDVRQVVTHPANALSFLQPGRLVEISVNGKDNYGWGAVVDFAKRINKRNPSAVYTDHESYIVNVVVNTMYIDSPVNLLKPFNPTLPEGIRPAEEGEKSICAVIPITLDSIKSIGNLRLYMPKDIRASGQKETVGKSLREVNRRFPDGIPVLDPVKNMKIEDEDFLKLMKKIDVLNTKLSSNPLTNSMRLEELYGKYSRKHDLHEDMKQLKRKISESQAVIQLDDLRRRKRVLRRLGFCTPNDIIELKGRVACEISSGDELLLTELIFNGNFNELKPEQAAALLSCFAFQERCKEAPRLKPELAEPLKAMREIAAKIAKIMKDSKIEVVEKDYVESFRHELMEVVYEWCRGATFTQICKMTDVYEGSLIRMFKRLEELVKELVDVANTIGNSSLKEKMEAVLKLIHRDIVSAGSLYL

GCGUCUUUACGGUGCUUAAAAA / AGCACCGUAAAGACGC [poly(A) substrate R22A/R16, fluorescein]
Kd [1]: 4.8 µM | Kd [2]: > 10 µM | Kd [3]: 4.5 µM
